Molecular target: human thrombopoietin receptor (human c-Mpl) (human) (UniProt P40238)
Test: cell-based or functional assay

“PEG-rHuMGDF (pegylated recombinant human megakaryocyte proliferation and development factor) (from UniProt P40225 22-184) (ligand)” gave a UT7/TPO (Max) of 100%.

Source: patent publication US20100004429A1
